{"source": "patent US20100235935", "key": {"[1]": {"test_system": "T1, pladin mutant A5 (Lys13→Ala)", "T1 sequence": "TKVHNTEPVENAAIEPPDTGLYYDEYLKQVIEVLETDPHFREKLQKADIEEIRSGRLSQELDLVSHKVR"}, "acetylated rPladin": {"test_system": "T2, acetylated rPladin", "T2 sequence": "T1 sequence with A13R"}, "[2]": {"test_system": "T3, pladin mutant A4 (Lys28→Ala)", "T3 sequence": "T1 sequence with A13R, K28A"}, "recombinant nesfatin-1": {"target": "T4, recombinant nesfatin-1 (UniProt P81117)", "T4 sequence": "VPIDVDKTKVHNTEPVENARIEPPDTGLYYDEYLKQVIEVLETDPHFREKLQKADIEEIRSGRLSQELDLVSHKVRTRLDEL"}, "[3]": {"test_system": "T5, recombinant pladin (plasma anti-diabetic nucb2 peptide)", "T5 sequence": "T1 sequence with A13R"}}, "note": "Where a chain is given by its changes, count along the chain named.", "data": [{"substance": "plasmin", "values": [{"measurement": "plasmin proteolysis in vitro", "setting": "[1]", "value": "resistant to plasmin proteolysis"}, {"measurement": "plasmin proteolysis in vitro", "setting": "acetylated rPladin", "value": "resistant to plasmin proteolysis"}, {"measurement": "plasmin proteolysis in vitro", "setting": "[2]", "value": "resistant to plasmin proteolysis"}, {"measurement": "digestion by plasmin in vitro", "setting": "recombinant nesfatin-1", "value": "Nesfatin-1 was completely digested by plasmin within 2 hours"}, {"measurement": "degradation on incubation with plasmin in vitro", "setting": "[3]", "value": "when rPladin was incubated with plasmin, it was rapidly degraded"}]}]}
